These results are taken from article PMC9600255.

The experiment deals with His6-tagged cytokeratin-19 (Novus Biologicals) (UniProt P08727). Put plainly: MST; His6-cytokeratin-19 labelled with RED-tris-NTA 2nd Generation dye, kept at 25 nM; BspC full-length or V-domain titrated from 5 uM to 0.153 nM; premium capillaries, Monolith NT.115 Pico, 20% excitation power.

pKd: −log10 of the molar value.

UniProt P08727, sequence (P08727 whole entry): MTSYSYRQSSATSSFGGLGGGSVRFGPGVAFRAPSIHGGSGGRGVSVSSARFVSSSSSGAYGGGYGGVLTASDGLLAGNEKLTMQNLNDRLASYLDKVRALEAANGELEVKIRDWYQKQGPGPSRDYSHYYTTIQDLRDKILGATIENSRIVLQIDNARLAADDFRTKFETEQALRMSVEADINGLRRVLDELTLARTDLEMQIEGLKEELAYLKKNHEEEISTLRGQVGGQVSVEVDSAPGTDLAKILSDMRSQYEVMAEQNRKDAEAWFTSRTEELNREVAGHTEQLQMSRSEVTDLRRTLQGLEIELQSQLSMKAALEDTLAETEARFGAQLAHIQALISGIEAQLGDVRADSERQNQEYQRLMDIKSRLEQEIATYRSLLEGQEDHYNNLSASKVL

Regarding “BspC V-domain protein (recombinant BspC consisting of only the variable domain) (domain or fragment)”, the pKd is 6.44.
The same measure for “full-length BspC protein (Group B streptococcal surface protein C) (natural protein)”: 7.48.

Usually pKd stands for the Kd on a negative log10 scale, so that one unit is a factor of ten. High values mean a low Kd, low ones a high Kd.
